The nanobody polyreactivity screen of Harvey et al. (2022)

Assay: yeast display, Sf9 membrane polyspecificity reagent, FACS + sequencing; frameworks hold sequencing errors
Method in brief: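 Galactose-induced (36–48 hours) yeast carrying a synthetic nanobody display library were exposed to 10% biotinylated, detergent-solubilized Sf9 membrane reagent at 4 °C for 1 hour. FACS followed streptavidin microbead enrichment, using low and high (top ~1%) gates for expression (anti-HA) and reagent binding (streptavidin). Colony PCR, MiSeq 2 × 250 sequencing and CDR-length filtering followed. Labels for polyreactivity reflect the gate of origin.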

Row | Sequence | polyreactivity (PSR sort gate)
1 | QVQLVESGGGLVQAGGSLRLSCAASGFTFYYYTMGWYRQAPGKEREFVAAITSSGGRTNYADSVKGRFTISRDNAKNIVYLQMNRLKPEDTAVYYCAATYIRYDHYRPRGGYWGQGTQVTVSS | high polyreactivity
2 | QVQLVESGGGLVQAGGSLRLSCAASGFTFYYYTMGWYRQAPGKQRELVAAITWRGGSTNYADSVKGRFTISRDNAKNTVFLQMNSLKPEDTAVYYCAAVSYWFWPGMDYWGQGTQVTVSS | low polyreactivity
3 | QVQLVESGGGLVQAGGSLRLSCAASGFTFYYYVMGWYRQAPGKERELVAAITNGGSTYYADSVKGRFTISRDNAKNTVYLQMISLKPEDTAVYYCATRQSHWSGEFDYWGQGTQVTVSS | high polyreactivity
4 | QVQLVESGGGLVQAGGSLRLSCAASGFTIDAYAMGWDRQAPGKERELVAAISGSGGSTYYADSVKGRFTISRDNAKNTVYLQMNSLKPEDTAVYYCATDPGPYDYDYWGQGTQVTVSS | low polyreactivity
5 | QVQLVESGGGLVQAGGSLRLSCAASGFTIDDNAMGWSRQPPGKERELVAAISWSGGSTYYADSVKGRFTISRDNAKNTVYLQMNSLKPEDTAVYYCAIDVSQPKFDYWGQGTQVTVSS | low polyreactivity
6 | QVQLVESGGGLVQAGGSLRLSCAASGFTIDGYAMGWYRQAPGKERELVAAIRRGGRTKYADSVKGRFTISRDNAKNTVYLQLNSLKPEDTAVYYCNAVTRGYYHEMEYWGQGTQVTVSS | high polyreactivity
7 | QVQLVESGGGLVQAGGSLRLSCAASGFTIDYYTMGWYRQAPGKERELVAAISWSGGSTYYADSVKGRFTISRDNAKNTVYLQMNSLKPEDTAVYYCAAAWSYRYELYYWGQGTQVTVSS | low polyreactivity
8 | QVQLVESGGGLVQAGGSLRLSCAASGFTIERNAMGWYRQAPGKERELVATISQSGTNTYYADSVKGRFTISRDNAKNTVYLQMNSLKPEETAVYYCNARDIFYRYDYWGQGTLVTVSS | low polyreactivity
9 | QVQLVESGGGLVQAGGSLRLSCAASGFTIGNYAMGWYRQAPGKERELVAAISSSGTSTYYADSVKGRFTISRDIAKNTVYLQMNSLKPEDTAVYYCAAEYIINYTIFEYWGQGTQLTVSS | high polyreactivity
10 | QVQLVESGGGLVQAGGSLRLSCAASGFTIGPNAMGWYRQPPGKERELVAAISQSGGSTYADSVKGRFTISRDNAKNTVYLQMNSLKPEDTAVYYCAAQRARVNRYGGKFGYWGQGTQVTVSS | high polyreactivity
11 | QVQLVESGGGLVQAGGSLRLSCAASGFTIGYNVMGWYREAAGKERELVATISWNGARTYYADSVKGRFTISRDNAKNTVYLQMNSLKPEDTAVYYCAARRYYRGEYDYWGQGTQVTVSS | low polyreactivity
12 | QVQLVESGGGLVQAGGSLRLSCAASGFTIKWYTMGWYRPAPGKERELVAGISRRGGSTYYADSVKGRFTISRDNAKNTVYLEMNSLKPEDTAVYYCNVYSRTHYQTYTDDYWGQCTQVTVSS | high polyreactivity
13 | QVQLVESGGGLVQAGGSLRLSCAASGFTINFYAMGWYRKAPGKERELVAAITASGGGSTYYADSVKGRFTISRDNAKNTVYLQMNSLKPEDTAVYYCNADYPGSFYTYDYWGQGTQVTVSS | low polyreactivity
14 | QVQLVESGGGLVQAGGSLRLSCAASGFTINFYAMGWYRQAPGKERELVAAITASGGGSTYYADSVKGRFTISRDNAKNTVYLQMNSLKPEDTAVYYCNADYTGSFYTYDYWGQGTQVTVSS | low polyreactivity
15 | QVQLVESGGGLVQAGGSLRLSCAASGFTIPVYAMGWYRQAPGKEMELVADITESGDSTYYADSVKGRFTISRDNAKNTVYLQMNSLKPEDTAVYYCAADGGWFWSLFYTFAFDYCGQGTQVTVSS | low polyreactivity
16 | QVQLVESGGGLVQAGGSLRLSCAASGFTIRNNAMGWYRQAPGKERELVAAISYSGGSTYYADSVKGRFTISRDNAKNTVYLQMNSLKPEDTAVYYCNRRRWSYLEYDYWGQGTQVTVSS | low polyreactivity
17 | QVQLVESGGGLVQAGGSLRLSCAASGFTISANTMGCYSQAPGKERELGATISGGSSTNYADSVKGRFTISRDNAKNTVYLQMNSLKPDDTAVYYCAKDGGLRKFDYWGQGTQVTVSS | high polyreactivity
18 | QVQLVESGGGLVQAGGSLRLSCAASGFTISLNTMGWYRQAPGKERELVAAINSGDSTYADSVKGRFTISRDNAKNTGYFQMNSLKPEDTAVYYCNADPDWWYPYFYWGQGTQVTVSS | low polyreactivity
19 | QVQLVESGGGLVQAGGSLRLSCAASGFTISRYAMGWYRQAPGKERELVASITYSGTRTYYADSVKGRFTISRDNAKNTVYLQMNSLKPEDTAVYYCAADDEYKQEAEMDSWGQGTQVTVSS | low polyreactivity
20 | QVQLVESGGGLVQAGGSLRLSCAASGFTISYYAMGWYRQAPWKEGELVAAIRKSGATTDYADSVKGRFTISRDNAKNTVYLQMNCMKPEDTAVYYCNAKNDQRSLGFDFWRQGTQVTVSS | high polyreactivity
21 | QVQLVESGGGLVQAGGSLRLSCAASGFTITHYAMGWYRQAPGKERELVAAISTSGGSTYYADSVKGRFTISRDNAKNTVYLQMNSLKPEDTAVYYCAARRDGWVQWGYYYWGQGTQVTVSS | low polyreactivity
22 | QVQLVESGGGLVQAGGSLRLSCAASGFTITRYARGWYRQAPGKERELVAVITYSGDTYYADSVKGRFTISRDNAKNTVYLQMNSLKPEDTAVYYCAVERAYYSDTGRYGYDYWGQGTQVTVSS | high polyreactivity

Row | Sequence | polyreactivity (PSR sort gate)
23 | QVQLVESGGGLVQAGGSLRLSCAASGFTITTYAMGWYRQAPGKERELVAVISVSGGRTYYADSVKGRFTISRDNAKNTVYLQMNSLKPEDTAVYYCAAEYYPGWEYGYWGQGTQVTVSS | high polyreactivity
24 | QVQLVESGGGLVQAGGSLRLSCAASGFTIWPYAMGWYRQAPGKERELVAGITRNGGSTYYADSVKGRFTISRDIAKNTVYLQMNSLKPEDTAVYYCNTKYAVEFDYWGQGTQVTVSS | low polyreactivity
25 | QVQLVESGGGLVQAGGSLRLSCAASGFTIWYTMGSYRQAPGKEREFLAAITSGGGSTYYAESVKGRFTISRDNAKNTVYFQMNSLKPEDTAVYYCAARERSYRAYGYWRQGTQVTVSS | high polyreactivity
26 | QVQLVESGGGLVQAGGSLRLSCAASGFTIYNNAMGWYRQAPGKERELVAGITSGGDSTNYADSVKGRFTISRDNAKNTVYLQMNRLKPEDTAVYYCAAEGGTNTPGVVESDYWGQGTQVTVSS | low polyreactivity
27 | QVQLVESGGGLVQAGGSLRLSCAASGFTIYRYAMGWYRQAPGKERELVAAISSIGGSTYYADSVKGRFTISRDNSKNTVYLQMNSLKPEDTAVYYCAAAISLYSYDYWGQGTQVTVSS | low polyreactivity
28 | QVQLVESGGGLVQAGGSLRLSCAASGFTIYSYAMGWYRQAPGKERELVAAISSGGSTYYADSVKGRFTISRDNAKNTVYLQMNSLKPEDTAVYYCARRYQVVWYYKYDYWGQGTQVTVSS | high polyreactivity
29 | QVQLVESGGGLVQAGGSLRLSCAASGFTKFYNAMGWYRQAPGKERELVAAITARGGGTYYADSVKGRFTFSRDNAKNTVYLLMNSLKPEDTAVYYCAKQPIIYWQSSRFDYWGQGTQVTVSS | low polyreactivity
30 | QVQLVESGGGLVQAGGSLRLSCAASGFTLADNPMGWYRQAPGKERELVAAITSGASTYYADSVKGRFTISRDNAKNTVYLQMNTLKPEDTAVYYCAALYYWRSGYDAWGQGTQVTVSS | low polyreactivity
31 | QVQLVESGGGLVQAGGSLRLSCAASGFTLAFYGMGWYRQAPGKERELVAAISRSGGSTYYADSVKGRFTISRDNAKNTVYLQMNSLKPEDTAVYYCAAAFRAGAVYGYYWGQGTQVTVSS | high polyreactivity
32 | QVQLVESGGGLVQAGGSLRLSCAASGFTLDVNAIGWYRQAPGKERELVATISWGGASTYYADSVKGRFTISRDNAKNTVYLQMNSLKPEDTAVYYFAAQYYYPDDKGGYDYWGQGTQVTVSS | low polyreactivity
33 | QVQLVESGGGLVQAGGSLRLSCAASGFTLDYYAMGWYRKAPGKERELVAAISFSGGSTYYADSVKGRFTISRDNAKNTVYLQMNSLKPEDTAVYFCAADPQIVWYDYWGQGTQVTVSS | low polyreactivity
34 | QVQLVESGGGLVQAGGSLRLSCAASGFTLFFHAMGWYRQAPGKERELVATISERGDSTYYADSVKGRFTISRDNAKNTVYLQMNSLKPEDTAVYYCAAVGTYSSYGYWGQGTQVTVSS | high polyreactivity
35 | QVQLVESGGGLVQAGGSLRLSCAASGFTLGPYMGWYRQAPGKERELVAAISGGGGRTYYADSVKGRFTISRDNAKNTVYLQMNSLKPEDTSVYYCAAAYRSYKQFYSYGYEYWGQGTQVTVSS | high polyreactivity
36 | QVQLVESGGGLVQAGGSLRLSCAASGFTLIDYAMGWYRQAPGKERELVAAISGSGGRTYYADSVKGRFTISRDNAKNTVYLQMNSLKPEDTAVYYCAAGRRHVYKRRRYDYCGQGTQVTVSS | high polyreactivity
37 | QVQLVESGGGLVQAGGSLRLSCAASGFTLKYNTMGWYRQAPGKERELVAAITSSGVSTYYSDSVKGRFTISRDNAKNTVYLQMNSLKPEDTAVYYCNARERYSYWGQGTQVTVSS | high polyreactivity
38 | QVQLVESGGGLVQAGGSLRLSCAASGFTLLPYAMGWYRQAPGKERELVAAISRRGVSTYYADSVKGRFTISRDNAKNTVYLQMNSLIPEDTSVYYWASRYFTGYGLRTQFYFWGQGTQVTVSS | high polyreactivity
39 | QVQLVESGGGLVQAGGSLRLSCAASGFTLLWNAMGWYRQAPGKERELVAAINKSGGSTYADSVKGRFTISRDNAKNTVYLQMNSLKPEDTAVYYCAAEVDYSYWPEYARKYYYWGQGTQVTVSS | low polyreactivity
40 | QVQLVESGGGLVQAGGSLRLSCAASGFTLPANGMGWYRQAPGKERQLVAAISFIAGSTYYADSVKGRFTISRDNAKNTVYLQMKSLKPEDTAVYYCATQFPPSTFYDYWGQGTQVTVSS | low polyreactivity
41 | QVQLVESGGGLVQAGGSLRLSCAASGFTLPLYAMGWYRQAPGKERELVATISSGGTTYYADSVKGRFTISRDNAKNTVYLEMNCLKPEDTGVYYCAAGGTFFHRFYYYYRSDYWGQGTQVTVSS | high polyreactivity
42 | QVQLVESGGGLVQAGGSLRLSCAASGFTLRRYAMGWYRQAPGKERELVATITSGGTTDYADSVKGRFTISRDNAKNTVYLQMNSLKPEDTAVYYCAAYRRGAYYYWGQGTQVTVSS | high polyreactivity
43 | QVQLVESGGGLVQAGGSLRLSCAASGFTLSASAMGWYRQAPGKERELVAGITYTGGRTYYADSVKGRFTISRDNAKNTVYFQMNSLKPEVTAVYYCNKAWSGYYKYGYWGQGTQVSVSS | low polyreactivity
